For experiment [1], the target named is T1, recombinant BNIP3 (BCL-2 adenovirus E1B 19 kDa interacting protein-3) (mouse, UniProt O55003 1-187, limits assumed, labelled with DyLight 650 for the microarray).
T1 construct: Bought recombinant protein (cusabio); also called recombinant BNIP3 (cusabio)
As to the kind of experiment: peptide microarray, immobilised peptide, labelled recombinant BNIP3 in solution.
Protocol: (§1) Interaction studies. For protein-peptide interaction studies, peptide libraries were synthesised and immobilised on microarray slides.
(§2) Microarray. […] As labelling kit a DyLight Microscale Antibody Labeling Kit (Thermo) with label Dylight 650 was used. The assay was performed using the automated TECAN HS4800 microarray processing station. Microarrays were incubated with customer provided samples diluted in blocking buffer for 2 h at 30° C. Before each step, microarrays were washed with washing buffer. Microarrays were scanned using a high-resolution fluorescence scanner. Laser settings and applied resolution were identical for all performed measurements. The resulting images were analyzed und quantified using spot-recognition software GenePix (Molecular Devices). […] For further data evaluation, the so called MMC2 values were determined. The MMC2 equals the mean value of all three instances on the microarray except when the coefficient of variation (CV)—standard-deviation divided by the mean value—is larger 0.5. In this case the mean of the two closest values (MC2) is assigned to MMC2. All steps were performed by JPT Peptide Technologies (Berlin, Germany).

Experiment [2] addresses T1, recombinant BNIP3 (BCL-2 adenovirus E1B …). The experiment is described as above. This is another data set of the same source.
Protocol: as §1, §2

Like-named read-outs stand apart in the source and are kept apart here.

B1: truncated BNIP3-20A fragment SGEENLQGSWVELHFSN (peptide)
peptide: SGEENLQGSWVELHFSN
notes: Peptide immobilised on the microarray; also called BNIP3 4-20
Consider B1, for which the Fluorescence intensity in experiment [1] came to 2660 arbitrary units.

B2: truncated BNIP3-20A fragment WVELHFSN (peptide)
peptide: WVELHFSN
notes: Peptide immobilised on the microarray; also called BNIP3 13-20
As for B2, in experiment [1], the Fluorescence intensity came to 14400 arbitrary units.

B3: truncated BNIP3-20A fragment SWVELHFSN (peptide)
peptide: SWVELHFSN
notes: Peptide immobilised on the microarray; also called BNIP3 12-20
For the molecule B3, the Fluorescence intensity in experiment [1] amounted to 4890 arbitrary units.

B4: BNIP3-20A peptide sequence MSQSGEENLQGSWVELHFSN (BNIP3 amino acids 1-20, wild type) (peptide)
peptide: MSQSGEENLQGSWVELHFSN
notes: Peptide immobilised on the microarray; also called BNIP3 1-20
For B4, the Fluorescence intensity in experiment [2] and in experiment [1] was 1040 arbitrary units in each case.

B5: substituted BNIP3-20A peptide MSQSGEENLQGSWVCLHFSN (E15 -> C) (peptide)
peptide: MSQSGEENLQGSWVCLHFSN
modifications: Peptide immobilised on a microarray slide; attachment chemistry not stated.
notes: Peptide immobilised on the microarray
For the molecule B5, the Fluorescence intensity in experiment [2] was 7150 arbitrary units.

B6: substituted BNIP3-20A peptide MSQSGEENLQGCWVELHFSN (S12 -> C) (peptide)
peptide: MSQSGEENLQGCWVELHFSN
modifications: Peptide immobilised on a microarray slide; attachment chemistry not stated.
notes: as for B5
With B6, the Fluorescence intensity in experiment [2] came out at 7040 arbitrary units.

B7: substituted BNIP3-20A peptide MSQSGEENLQYSWVELHFSN (G11 -> Y) (peptide)
peptide: MSQSGEENLQYSWVELHFSN
modifications: Peptide immobilised on a microarray slide; attachment chemistry not stated.
notes: as for B5
For B7, the Fluorescence intensity in experiment [2] was 10200 arbitrary units.

B8: substituted BNIP3-20A peptide MSQSGEENLQGSWVELCFSN (H17 -> C) (peptide)
peptide: MSQSGEENLQGSWVELCFSN
modifications: Peptide immobilised on a microarray slide; attachment chemistry not stated.
notes: as for B5
B8: the Fluorescence intensity in experiment [2] came out at 6790 arbitrary units.

B9: substituted BNIP3-20A peptide MSQSGEENLQGSWVELHFFN (S19 -> F) (peptide)
peptide: MSQSGEENLQGSWVELHFFN
notes: as for B5
For B9, in experiment [2], the Fluorescence intensity was determined as 15000 arbitrary units.

B10: substituted BNIP3-20A peptide MSQSGEENLQGSWVELYFSN (H17 -> Y) (peptide)
peptide: MSQSGEENLQGSWVELYFSN
modifications: Peptide immobilised on a microarray slide; attachment chemistry not stated.
notes: as for B5
For B10, the Fluorescence intensity in experiment [2] came to 7990 arbitrary units.

B11: substituted BNIP3-20A peptide MSQSGYENLQGSWVELHFSN (E6 -> Y) (peptide)
peptide: MSQSGYENLQGSWVELHFSN
modifications: Peptide immobilised on a microarray slide; attachment chemistry not stated.
notes: as for B5
Turning to B11, in experiment [2], the Fluorescence intensity was found to be 13100 arbitrary units.

Source of the values: patent publication US20220220174A1 (BIMYO, published 2022).
